Consider six substances from patent US20160146786A1, “Method of monitoring cellular trafficking of peptides” (PHYLOGICA LIMITED, priority 2013, published 2016).

The nature of data set [1]: CD spectrophotometry of FITC-labelled peptides. The format is physicochemical.
The test system of data set [2] is HEK-293 cells expressing GFP 11+GFP 1-10 fragments. Description: Effect of cargo peptides on reconstitution of split GFP activity, transfected constructs (FIG. 17). The settings on record: peptide fused to Sumo-GFP 11, expressed from transiently transfected constructs; independent of uptake. The format is cell-based, human. The source says:
FIG. 17 is a graphical representation showing the effect of cargo proteins on reconstitution of split GFP activity in isolated HEK-293 cells expressing GFP 11+GFP 1-10 fragments. HEK-293 cells transfected with GFP 1-10 vectors pcDNA4/TO vector [TO hGFP1-10(a)] or pcDNA4/HM vector [HM hGFP1-10(a)] are shown on the abscissa. Relative fluorescence for each GFP 11 construct added to the cells, normalized for activity in the presence of the MyD88_S11 and mGFP1-10 constructs, is indicated on the y-axis. The GFP 11 constructs lacking cargo peptides were: MyD88-GFP 11 fusion (MyD88_S11); Mal-GFP 11 fusion (Mal_S11), β-actin-GFP 11 fusion β-actin_S11), and Sumo-GFP 11 fusion (Sumo_S11). […]
The inventors have also considered the effect of cargo protein on reconstitution of split GFP activity in isolated HEK-293 cells expressing GFP 11+GFP 1-10 fragments. HEK-293 cells were transfected with GFP 1-10 vectors pcDNA4/TO vector [TO hGFP1-10(a)] or pcDNA4/HM vector [HM hGFP1-10(a)], and recombinant GFP 11-encoding constructs were added to the cells, and fluorescence activity was determined as a normalized value relative to fluorescence obtained for transfections employing MyD88-GFP11 and mGFP1-10 constructs. […]

In data set [3] the target is hGFP1-10(a) (humanized variant of commercially-available mGFP1-10, 'A' variant, expressed from pcDNA4/TO or pcDNA4/HM). Description: cell-based or functional assay.
Another data set deals with endosome. To be noted: Sugita et al. 2008; cited from earlier work.

For “C20_ABH_0304_1746: identified CPP, 38 aa; Transposase fragment [Bordetella pertussis] (PLKPKKPKTQEKKKKQPPKPKKPKTQEKKKKQPPKPKR)”, the “CD spectral analysis, conformation” value in data set [1] (NaF Buffer pH 7.2) and in data set [1] (SDS Micelles pH 7.2) was “Strong Beta-turn” each time.
As to “PYC35: cargo protein, which is not a CPP (RSDYKDDDDKAYQSIRSGGIESSSKRER)”, the “Decrease of Sumo_S11 fluorescence (reconstitution of split GFP activity)” value in data set [2] is given as “no-effect”.
“T08_HBM_0104_0084: identified CPP, 33 aa (RKQKSLQTKLAENPPVPRKKRQSRPRWKQWLQK)”: the figures for the “CD spectral analysis, conformation” value in data set [1] (NaF Buffer pH 7.2), in data set [1] (SDS Micelles pH 4.5) and in data set [1] (SDS Micelles pH 7.2) were “Partially helical”, “Helical” and “Helical”, respectively.
Regarding “T09_HBM_0103_0167: identified CPP, 32 aa (PSSTPATNVARPRLNPIRGHKFALAVPNSRTR)”, the “CD spectral analysis, conformation” value is listed as “Random coil” in data set [1] (NaF Buffer pH 4.5), “Coil with Beta-turn” in data set [1] (NaF Buffer pH 7.2), “Random coil” in data set [1] (SDS Micelles pH 4.5) and “Coil with Beta-turn” in data set [1] (SDS Micelles pH 7.2).
In data set [3], TAT-Sumo-GFP 11 fusion returned a decrease of GFP fluorescence (split GFP reconstitution) relative to Sumo S11 in transiently transfected HEK-293 cells of over 50%.
Consider “transferrin: named in cited endosome escape study”, for which the “Efficiency of endosome escape” value with endosome is “low”.
